Measurements from patent US20120058906A1 (published 2012).
Residue numbers refer to the chain shown, from its start. One block for each binder: values may come before it.

Columns and labels:
[1] = molecular target: T1, Recombinant Human DLL4 (R&D Systems Cat#1506-D4/CF) (human, UniProt Q9NR61 27-524); experiment: MSD ECL multi-spot plate, antigen immobilized; Fab 0.32 nM; blank spot 513
T1 construct: Purchased recombinant protein; also called delta-like protein 4

[2] = molecular target: T2, rHuman P-Cadherin/Fc Chimera, CF (R&D Systems Cat#861-PC) (human, UniProt P22223 108-654); experiment: as above
T2 construct: Purchased Fc chimera; not shown: Fc portion of the purchased chimera

[3] = molecular target: T3, rHuman Erythropoietin R/Fc Chimera, CF (R&D Systems Cat#963-ER) (human, UniProt P19235 25-250); experiment: as above
T3 construct: Purchased Fc chimera; also called EPO R/Fc; Epo R; not shown: Fc portion of the purchased chimera
T3 sequence: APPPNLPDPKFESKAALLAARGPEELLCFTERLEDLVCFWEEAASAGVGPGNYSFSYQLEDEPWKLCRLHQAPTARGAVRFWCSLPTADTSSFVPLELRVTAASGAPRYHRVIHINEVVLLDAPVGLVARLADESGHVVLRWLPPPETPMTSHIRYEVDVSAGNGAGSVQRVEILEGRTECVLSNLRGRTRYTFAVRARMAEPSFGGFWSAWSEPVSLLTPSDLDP

[4] = molecular target: T4, rHuman Notch-1/Fc Chimera, CF (R&D Systems Cat#3647-TK) (human, UniProt P46531 19-526); experiment: as above
T4 construct: Purchased Fc chimera; not shown: Fc portion of the purchased chimera

[5] = molecular target: T5, rHuman CD44/Fc Chimera, CF (R&D Systems Cat#3660-CD) (human, UniProt P16070 21-220); experiment: MSD ECL titration, Fab 2383 nM, blank 344
T5 construct: Bought Fc chimera; Fc part of the bought chimera not given

[6] = molecular target: T6, rHuman HGF R/c-MET/Fc Chimera, CF (R&D Systems Cat#358-MT/CF) (human, UniProt P08581 25-932); experiment: MSD ECL titration, Fab 2383 nM, blank 344
T6 construct: Bought Fc chimera; also called HGF R/Fc; Fc part of the bought chimera not given

[7] = molecular target: T7, rHuman ErbB2/Fc Chimera, CF (R&D Systems Cat#1129-ER) (human, UniProt P04626 23-652); experiment: MSD ECL titration, Fab 2383 nM, blank 344
T7 construct: Bought Fc chimera; also called HER2/neu; Fc part of the bought chimera not given

[8] = molecular target: T8, rHuman EGF R/Fc Chimera, CF (R&D Systems Cat#344-ER) (human, UniProt P00533 25-645); experiment: MSD ECL titration, Fab 2383 nM, blank 344
T8 construct: Bought Fc chimera; Fc part of the bought chimera not given

[9] = molecular target: T9, rHuman Erythropoietin R/Fc Chimera, CF (R&D Systems Cat#963-ER) (human, UniProt P19235 25-250); experiment: MSD ECL titration, Fab 2383 nM, blank 344
T9 construct: Bought Fc chimera; also called EPO R/Fc; EPOR; Fc part of the bought chimera not given
T9 sequence: T3 sequence

[10] = molecular target: T10, Recombinant Human DLL4 (R&D Systems Cat#1506-D4/CF) (human, UniProt Q9NR61 27-524); experiment: MSD ECL titration, Fab 2383 nM, blank 344
T10 construct: Bought recombinant protein; also called rHuman DLL4; delta-like protein 4

[11] = molecular target: T11, rHuman Notch-1/Fc Chimera, CF (R&D Systems Cat#3647-TK) (human, UniProt P46531 19-526); experiment: MSD ECL titration, Fab 2383 nM, blank 344
T11 construct: Bought Fc chimera; Fc part of the bought chimera not given

[12] = molecular target: T12, rHuman IGF-1 sR (insulin-like growth factor-1 soluble receptor), CF (R&D Systems Cat#391-GR) (human, UniProt P08069 31-932); experiment: MSD ECL titration, Fab 2383 nM, blank 344
T12 construct: Bought soluble receptor; also called IGF-R1

[13] = molecular target: T13, rHuman P-Cadherin/Fc Chimera, CF (R&D Systems Cat#861-PC) (human, UniProt P22223 108-654); experiment: MSD ECL titration, Fab 2383 nM, blank 344
T13 construct: Bought Fc chimera; Fc part of the bought chimera not given

[14] = molecular target: T14, rHuman IGF-1 sR (insulin-like growth factor-1 soluble receptor), CF (R&D Systems Cat#391-GR) (human, UniProt P08069 31-932); experiment: ECL (MSD multi-spot), antigen on plate, Fab 2 nM
T14 construct: Bought soluble receptor; also called IGF-R1

[15] = molecular target: T15, rHuman HGF R/c-MET/Fc Chimera, CF (R&D Systems Cat#358-MT/CF) (human, UniProt P08581 25-932); experiment: ECL (MSD multi-spot), antigen on plate, Fab 2 nM
T15 construct: Bought Fc chimera; also called HGF R/Fc; not shown: Fc of the bought chimera

[16] = molecular target: T16, rHuman ErbB2/Fc Chimera, CF (R&D Systems Cat#1129-ER) (human, UniProt P04626 23-652); experiment: ECL (MSD multi-spot), antigen on plate, Fab 2 nM
T16 construct: Bought Fc chimera; also called HER2/neu; not shown: Fc of the bought chimera

[17] = molecular target: T17, rHuman Notch-1/Fc Chimera, CF (R&D Systems Cat#3647-TK) (human, UniProt P46531 19-526); experiment: ECL (MSD multi-spot), antigen on plate, Fab 2 nM
T17 construct: Bought Fc chimera; not shown: Fc of the bought chimera

[18] = molecular target: T18, Recombinant Human DLL4 (R&D Systems Cat#1506-D4/CF) (human, UniProt Q9NR61 27-524); experiment: ECL (MSD multi-spot), antigen on plate, Fab 2 nM
T18 construct: Bought recombinant protein; also called delta-like protein 4

[19] = molecular target: T19, rHuman P-Cadherin/Fc Chimera, CF (R&D Systems Cat#861-PC) (human, UniProt P22223 108-654); experiment: ECL (MSD multi-spot), antigen on plate, Fab 2 nM
T19 construct: Bought Fc chimera; also called CDH3; not shown: Fc of the bought chimera

[20] = molecular target: T20, rHuman Erythropoietin R/Fc Chimera, CF (R&D Systems Cat#963-ER) (human, UniProt P19235 25-250); experiment: ECL (MSD multi-spot), antigen on plate, Fab 2 nM
T20 construct: Bought Fc chimera; also called EPO R/Fc; Epo R; not shown: Fc of the bought chimera
T20 sequence: T3 sequence
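Further: blank spot per well as comparator with Hit at signal to blank ratio of 4 or more.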

ECL signal [1]: 1210 ECL signal
ECL signal [2]: 656 ECL signal
ECL signal [3]: 851 ECL signal
ECL signal [4]: 983 ECL signal
B1: Fab VH5-51_IGHD5-18*01>3_IGHJ4*01_G100R & V3-4_IGLJ1*01 (Fab, V domains shown)
VH: EVQLVQSGAEVKKPGESLKISCKGSGYSFTSYWIGWVRQMPGKGLEWMGIIYPGDSDTRYSPSFQGQVTISADKSISTAYLQWSSLKASDTAMYYCARRRYSYGYDYFDYWGQGTLVTVSS
VL: QTVVTQEPSFSVSPGGTVTLTCGLSSGSVSTSYYPSWYQQTPGQAPRTLIYSTNTRSSGVPDRFSGSILGNKAALTITGAQADDESDYYCVLYMGSGISYVFGTGTKVTVL
notes: It was expressed as a Fab: CH1 with tags from Plasmid A and lambda CL from Plasmid E; also called Fab No. 23

ECL signal [5]: 559
ECL signal [6]: 762
ECL signal [7]: 454
ECL signal [8]: 621
ECL signal [9]: 658
ECL signal [10]: 11800
ECL signal [11]: 690
ECL signal [12]: 527
ECL signal [13]: 728
B2: Fab VH1-46_IGHD6-6*01_IGHJ1*01 & L6_IGKJ1*01 (Fab, V domains shown)
VH: QVQLVQSGAEVKKPGASVKVSCKASGYTFTSYYMHWVRQAPGQGLEWMGIINPSGGSTSYAQKFQGRVTMTRDTSTSTVYMELSSLRSEDTAVYYCAREEYSSSSAEYFQHWGQGTLVTVSS
VL: not shown
notes: Expressed in E. coli as Fab: heavy chain with CH1 plus Flag and His tags from Plasmid A, kappa light chain constant region from Plasmid C; also called Fab No. 1

ECL signal [14]: 205 ECL signal
ECL signal [15]: 255 ECL signal
ECL signal [16]: 176 ECL signal
ECL signal [17]: 307 ECL signal
ECL signal [18]: 6100 ECL signal
ECL signal [19]: 223 ECL signal
ECL signal [20]: 251 ECL signal
B3: Fab VH1-46_IGHD6-6*01_IGHJ1*01_S102A_S103P_S104F & L6_IGKJ1*01_S28P (Fab, V domains shown)
VH: B2 VH with S102A, S103P, S104F
VL: EIVLTQSPATLSLSPGERATLSCRASQPVSSYLAWYQQKPGQAPRLLIYDASNRATGIPARFSGSGSGTDFTLTISSLEPEDFAVYYCQQRSNWPPWTFGQGTKVEIKR
notes: Fab
